Laboratory results from PMC9243006.

Target: purified complement factor H protein (UniProt P06909)
Test: SPR; CFH immobilised by amine coupling on a sensor chip; rTraT at 80, 40, 20, 10, 5 or 2.5 µg/ml

UniProt P06909, sequence (P06909 19-1234): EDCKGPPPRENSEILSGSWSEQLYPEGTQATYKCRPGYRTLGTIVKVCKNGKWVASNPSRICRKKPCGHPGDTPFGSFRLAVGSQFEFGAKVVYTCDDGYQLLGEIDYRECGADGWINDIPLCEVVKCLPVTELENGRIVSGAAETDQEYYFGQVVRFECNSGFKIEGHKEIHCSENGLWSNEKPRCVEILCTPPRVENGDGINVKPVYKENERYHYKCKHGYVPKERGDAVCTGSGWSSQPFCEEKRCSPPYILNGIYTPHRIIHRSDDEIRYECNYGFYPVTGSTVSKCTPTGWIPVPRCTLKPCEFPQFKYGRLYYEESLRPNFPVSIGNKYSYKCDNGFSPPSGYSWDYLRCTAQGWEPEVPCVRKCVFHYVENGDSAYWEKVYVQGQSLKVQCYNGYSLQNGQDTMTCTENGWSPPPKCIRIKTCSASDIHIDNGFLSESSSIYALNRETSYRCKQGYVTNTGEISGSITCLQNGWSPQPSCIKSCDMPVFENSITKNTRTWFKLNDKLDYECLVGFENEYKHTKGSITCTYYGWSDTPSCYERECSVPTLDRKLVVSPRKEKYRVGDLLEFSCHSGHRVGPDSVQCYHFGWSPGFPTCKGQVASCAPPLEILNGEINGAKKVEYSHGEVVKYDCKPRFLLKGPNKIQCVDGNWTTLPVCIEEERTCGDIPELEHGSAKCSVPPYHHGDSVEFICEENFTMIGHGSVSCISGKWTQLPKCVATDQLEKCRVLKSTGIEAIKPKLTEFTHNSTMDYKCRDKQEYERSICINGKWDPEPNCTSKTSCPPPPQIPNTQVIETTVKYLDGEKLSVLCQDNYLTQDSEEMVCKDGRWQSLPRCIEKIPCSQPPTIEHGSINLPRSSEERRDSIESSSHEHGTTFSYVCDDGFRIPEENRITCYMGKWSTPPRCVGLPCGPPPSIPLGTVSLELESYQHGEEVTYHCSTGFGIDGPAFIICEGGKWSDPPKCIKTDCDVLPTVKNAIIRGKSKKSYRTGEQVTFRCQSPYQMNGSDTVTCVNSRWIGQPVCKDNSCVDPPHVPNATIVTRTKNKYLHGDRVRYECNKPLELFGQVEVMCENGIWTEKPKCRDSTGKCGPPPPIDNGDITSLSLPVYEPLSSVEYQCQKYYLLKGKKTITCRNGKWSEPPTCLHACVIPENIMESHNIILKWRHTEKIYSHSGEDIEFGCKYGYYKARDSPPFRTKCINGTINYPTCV

With “recombinant TraT (rTraT) (domain or fragment)” the Kd was 3.15 µM.
